Test results reported in patent publication US20060030527A1.

Molecular target: Fc receptor on THP-1 cells
Assay: cell-based or functional assay

## human IgG1 (heat aggregated, plate coated) (antibody)
  TNF secretion by THP-1 cells on wells coated with 10 ug/well heat aggregated protein: > 40 ng/well
